Test results taken from the nanobody polyreactivity screen of Harvey et al. (2022).

Test: yeast display, Sf9 membrane polyspecificity reagent, FACS + sequencing; frameworks hold sequencing errors
How it was run: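 A nanobody's polyreactivity label depends on the gate it was sorted from. Yeast display cells were stained with 10% biotinylated, detergent-solubilized Sf9 membrane reagent for 1 hour at 4 °C, enriched on streptavidin microbeads and sorted by FACS. The low and high (top ~1%) gates were set on anti-HA fluorescence for expression and streptavidin fluorescence for reagent binding.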

Sequence | polyreactivity (PSR sort gate)
QVQLVESGGGLVQAGGSLRLSCAASGYIFPFYAMGWYRQAPGKQRELVAAITESGGSTYYADSVKGRFTISRDNAKNNVYLQMNSLKPEDTAVYYCAKEVVKHPRGKLDYWGQGTQVTLSS | low polyreactivity
QVQLVESGGGLVQAGGSLRLSCAASGYIFPRYAMGWYRQAPGKERELVAAISYSGGSTYYADSVKGRFTISRDYAKNTVYLQMNSLKPEDTAVYYCNAYFLSQYQSAYRDDYWGQGTQVTVSS | high polyreactivity
QVQLVESGGGLVQAGGSLRLSCAASGYIFPYNAMGWYRQAPGKERELVATITWTGGSTYYADSVKGRFTISRDNAKNSVYLQMNSLKPEDTAVYYCAADLSIRYDHEYGYWGKGTQVTVSS | low polyreactivity
QVQLVESGGGLVQAGGSLRLSCAASGYIFPYNVMGWSRQAPGKERELVAAITWRVVRTYYADSVKGRFTISRDNAKNTVYLQMNSLKPEDTAVYYCAALSRQSGDYWGQGTQVTVSS | high polyreactivity
QVQLVESGGGLVQAGGSLRLSCAASGYIFQRDAMGWYRTAPGKEREFVAAIRYSGGSTYYADSVKGRFTISRDNAKNTVYLQMNCLKPEDTAVYYCAADQRDPWRSAYGYYYWGQGTQVTVSS | high polyreactivity
QVQLVESGGGLVQAGGSLRLSCAASGYIFQVNAMGWYRQAPGKERELVASISCGGSTNYADSVKGRFTISRDNAKNTVYLQMNSLKPEDTAVYYCAAELGYPYLQYVYWSQYLYDYWGQGTQVTVSS | low polyreactivity
QVQLVESGGGLVQAGGSLRLSCAASGYIFRYNAMGWYRQAPGKEREFVASISQRGGSTYYADSVKGRFTISRDNAKNTVYLQMNSLKPEDTAVYYCAARLGYYSYEYNYWGQGTQVTVSS | high polyreactivity
QVQLVESGGGLVQAGGSLRLSCAASGYIFSGNAMGWYRQAPGKERELVAAITRSDVNTDYADSVKGRFTISRDNAKNTVYLQMNSLKPEDTAVYSCNTRVRASSVDYDEGDYWGQGTQVTVSS | low polyreactivity
QVQLVESGGGLVQAGGSLRLSCAASGYIFSLNAMGWYRQAPGKERELVAGIRKRGGSTYYADSVKGRFTISRDNAKNTVYLQMNSLKPEDTAVYYCAAQPALTYRFYYWGQGTQVTVSS | high polyreactivity
QVQLVESGGGLVQAGGSLRLSCAASGYIFTIYAMGWYRQAPAKEREFVAAITWSGGRTYYADSVKGRFTISRDTAKNTVYLQMNSLKPEDSAVDYGAARVANYLSQMYYWGQGTQVTVSS | high polyreactivity
QVQLVESGGGLVQAGGSLRLSCAASGYIFVFNTMGWYRQAPGKERELVASISWDAGTTYYADSVKGRFTISRDNAKNTVYLQMNSLKPEDTAVDYCNAGRIRSGYLDYWGQGTQVTVSS | low polyreactivity
QVQLVESGGGLVQAGGSLRLSCAASGYIFVRYAMGWYRQAPGKERELVAAINSSGGRTYYADSVKGRFTISRDNAKNTVYLQLNSLKPEDTAVYYCAAYGYYRSGYRALEGYWGQGTQVTVAS | high polyreactivity
QVQLVESGGGLVQAGGSLRLSCAASGYIFVRYAMGWYRQAPGKERELVAAINSSRGRTYYADSVKGRFTISRDNAKNTVSLQMNSLKPEDTAVYYCGAYGYYRSGYRALEGYWGQGTQVTVSS | high polyreactivity
QVQLVESGGGLVQAGGSLRLSCAASGYIFVYYAMGWYRQAPGKEREMVAAISSSGDTTYYADSVKGRFTISRDNAKNTVYLQMNSLKPEDTAVYYCAARVRGYSHASNYYWGQGTQVTVSS | high polyreactivity
QVQLVESGGGLVQAGGSLRLSCAASGYIFVYYVMGWYRQAPGKERELVTAIDGNGVSTYYADSVKGRFSISRDNAKYSVYLQMNSLKPDDTAVYYCAADYLYHQTSRGKYYSWGQGTQVTVSS | low polyreactivity
QVQLVESGGGLVQAGGSLRLSCAASGYIFWGNAMGWYRQAPGKERELVAAISYIGGSTYYADSVKGRFTISRDNAKNTVYLQMNSLKPEDTAVYYCAKRVLHQPYYHGVSGRRYDYWGQGTQVTVSS | high polyreactivity
QVQLVESGGGLVQAGGSLRLSCAASGYIFWSYAMGWYRQAPGKERELVAGITASGGSTYYADSVKGRFTISRDNAKNTVYLQMNSLKPEDTAVYYCAAEAYTQYWIYYYWGQCTQVTVSS | high polyreactivity
QVQLVESGGGLVQAGGSLRLSCAASGYIFYAYAMGWSRQAPGKERELVAAISSGGGRTYYADSVKGRFTISRDNAKNTVYLQMNSLKPEDTAVYYCAARRRDRGEYYYWGQGTQVTVSS | high polyreactivity
QVQLVESGGGLVQAGGSLRLSCAASGYIFYFNDMGWYRQAPGKERELVADITYSGDSTYYADSVKGRFTISRDNAKNTVYLQMNSLKPEDTAVYYCAARRGWWYRGDDYWGQGTQVNVSS | low polyreactivity
QVQLVESGGGLVQAGGSLRLSCAASGYIFYQYAMGWDRQAPGKERELVAGINWRGGSTYADSVKGRFTISRDNAKITVYLQMNSLKPEDTEVYYCNANQYRQDVFRRPSYYAYYYWGQGTQVTVSS | high polyreactivity
QVQLVESGGGLVQAGGSLRLSCAASGYIFYRYAMGWYRQAPGKEREFVASITKRGGRTFYADSVKGRFTISRDNAKNTVYLQMNSLKPEDTAVYYCARKAEYGTDMGYWGQGTQVTVSS | high polyreactivity
QVQLVESGGGLVQAGGSLRLSCAASGYIFYSCAMGWYRQAPGKERELVATISSGGSTYYSDSVKGRFTISRDNAKNTVYLQMNSLKPEDTAVYYCNAKMYKPPFDYWGQGTQVTVSS | low polyreactivity

Sequence | polyreactivity (PSR sort gate)
QVQLVESGGGLVQAGGSLRLSCAASGYIFYTYAMGWYRQAPGKERELVASIDSGGSTNYADSVKGRFTISRDNAKNTVYLQMNSLKPEDTAVYYCAADVIVRVYYYYYVLMDYWGHGTQVTVSS | low polyreactivity
QVQLVESGGGLVQAGGSLRLSCAASGYIFYYNAMGWYRQAPGKERELVADITWSGDSTYYADSVKGRFTISRYNAKNTVYLQMNSLKPEDTAVYYCAAEYLEYWDYDIMDYWGQGTQVTVSS | low polyreactivity
QVQLVESGGGLVQAGGSLRLSCAASGYIFYYNTMGWYRQAPGKERELVAAIRSSGGSTYYADSVKGRFTISRDNAKNTVYLQMNSLKPEDTAVYYCAARPYRTKLIYGYWGQGTQVTVSS | high polyreactivity
QVQLVESGGGLVQAGGSLRLSCAASGYIFYYYAMGWYRQAPGKERELVAAITFSGGSTYYADSVKGRFTISRDNAKNNVYLQMNRLKPEDTAGYYCAKVELRDAAELGSDEYDYWGQGTQVTVSS | low polyreactivity
QVQLVESGGGLVQAGGSLRLSCAASGYIGNYPMGWYRQAPGKESELVAAITTSGGRTYYADSVKGRFTISRDNAKNTVYVQMNSLKPEDTAVYYCAAPWRLFSLYDYWGQGTQVTVSS | low polyreactivity
QVQLVESGGGLVQAGGSLRLSCAASGYILGGNAMGWYRQAHGKERELDAVIRKSGGSTYADSVKGRFTISRDNAKNSVYLQMNSLKPEDTAVYYCNADTLAGVYFYQSDYWGQGTQVTVSS | low polyreactivity
QVQLVESGGGLVQAGGSLRLSCAASGYILGVYAMGWYRQAPGKERELVASISRSGGSTYYADSVKGRFTISRDNAKNTVYLQMNSLKPEDTAVYYCATRSRTAHFRLRYDYWGQGTQVTVSS | low polyreactivity
QVQLVESGGGLVQAGGSLRLSCAASGYILHPNAMRWYRQSPGKDRELVAAIRWRGGSTYYADSVKGRFTISRDNAKNTVYLQMNSLKPEDTAVYYCAADKSKYRAFDYWGQGTQVTVSS | high polyreactivity
QVQLVESGGGLVQAGGSLRLSCAASGYILIYNAMGWYRQAPGTERELVAAINYRGDRTYYADSVKGRFTISRDNAKNTVYLQMNSLKPEDTAVYYCAKDYPYYGRYYRYPYDSWGQGTQVTVSS | high polyreactivity
QVQLVESGGGLVQAGGSLRLSCAASGYILPKNTMGWYRQAPGKERELVAAISWSGGSTFYADSVKGRFTISRDNAKHTVYLQMNSLKPEDTAVYYCAADRSWSWYYRYDYWGQGTQVTVSS | low polyreactivity
QVQLVESGGGLVQAGGSLRLSCAASGYILPKNTMGWYRQAPGKERELVAAISWSGGSTFYADSVKGRFTISRDNAKNTVYLQMNSLKPEDTAVYYCAADRSWSWYYRYDYWGQGTQVTVSS | low polyreactivity
QVQLVESGGGLVQAGGSLRLSCAASGYILQINAMGWYRQAPGKERELVAAISISGGNTYYADSVKGRFTISRDNAKNTVYLQMNSLKPEDTAVYYCNAGGPLQPYDYWGQGTQVTVSS | low polyreactivity
QVQLVESGGGLVQAGGSLRLSCAASGYILTHYAMGWYRQAPGKERELVAAITSSGGSTYYADSVKGRFTISRDNAKNTVYLQMNSLKPEDTAVYYCAADAGQQEYDYWGQGTQVTVSS | low polyreactivity
QVQLVESGGGLVQAGGSLRLSCAASGYILWNAMGWYRPAPGKERELVAAIRFRGGSTSYADSVKGRFTISRDNAKNTVYLQMNSLKPEDTAVYYCNARWWVIRPYQRHDYWGQGTQVTVSS | low polyreactivity
QVQLVESGGGLVQAGGSLRLSCAASGYISYVNAMGWYRQAPGKERELVAAISGRGGSTYYADSVKGRFTISRDNAKNNVYLQMNSLKPEDTAVYYCAADLYYSYYWGQGTQVTVSS | low polyreactivity
QVQLVESGGGLVQAGGSLRLSCAASGYIVGAYAKGWYRQAPGKERELVAGITASGDSTYYADSVKGRFTISRDNAKNTVYLQMKCLKPEDTAVYYCNAQPDIGLYDRQWKEPYEYWGQGTQVTVSS | low polyreactivity
QVQLVESGGGLVQAGGSLRLSCAASGYIVYFNAMGWYRQAPGKERELVASIDSGGSTNYADSVKGRFTISRDNAKNTVYLQMNSLKPADTAVYYCAADKLYQPGIGDDYWGQGTQVTVSS | low polyreactivity
QVQLVESGGGLVQAGGSLRLSCAASGYIWYNAMRWYRQAPGKERELVAAISWGGGTTYYADSVKGRFTISRDNAKNTVYLQMNSLKPEDTAVYYCAAVDAVGPTSHAMYYWGQGTQVTVSS | low polyreactivity
QVQLVESGGGLVQAGGSLRLSCAASGYIWYYAMGWSRQAPGKERELVAAISWGGGSTYYADSVKGRFTISRDNAKNTVYLQMNSLKPEDTAVYYCATRCIPDDNARDYWGQGTQVTVSS | low polyreactivity
QVQLVESGGGLVQAGGSLRLSCAASGYIYSVNAMGWYRQAPGKERELVAAIRGSGGSTFYADSVKGRFTISRDNAKNTVYLQMNSLKPEDTAVSYCAASFLGSFTDWVYSVYEYGSWGQGTQVTVSS | low polyreactivity
QVQLVESGGGLVQAGGSLRLSCAASGYLWYYAMGWYRQSPGKERELVAAICWGGGSTFFADSVKGRFTISRDNAKNTVYLQMNSLKPEDTAVYYCAAVDAVGPTSHAMFYWGQGTQVTGSS | low polyreactivity
